PMC8327139, “Nodal modulator (NOMO) is required to sustain endoplasmic reticulum morphology” (The Journal of Biological Chemistry, 2021)

Target: the molecule itself
Experiment: SEC-MALS; NOMO1-FLAG on a Superose 6 column, RT, 50 mM MES pH 6.0, 150 mM KCl, 5 mM MgCl2, 5 mM CaCl2, 2% glycerol, 0.05% DDM; protein conjugate analysis to correct for detergent

B1: NOMO1-FLAG (nodal modulator 1, full length, C-terminal FLAG tag) (natural protein, human, UniProt Q15155 32-1222, looked up)
chain: SEDIVVGCGGFVKSDVEINYSLIEIKLYTKHGTLKYQTDCAPNNGYFMIPLYDKGDFILKIEPPLGWSFEPTTVELHVDGVSDICTKGGDINFVFTGFSVNGKVLSKGQPLGPAGVQVSLRNTGTEAKIQSTVTQPGGKFAFFKVLPGDYEILATHPTWALKEASTTVRVTNSNANAASPLIVAGYNVSGSVRSDGEPMKGVKFLLFSSLVTKEDVLGCNVSPVPGFQPQDESLVYLCYTVSREDGSFSFYSLPSGGYTVIPFYRGERITFDVAPSRLDFTVEHDSLKIEPVFHVMGFSVTGRVLNGPEGDGVPEAVVTLNNQIKVKTKADGSFRLENITTGTYTIHAQKEHLYFETVTIKIAPNTPQLADIIATGFSVCGQISIIRFPDTVKQMNKYKVVLSSQDKDKSLVTVETDAHGSFCFKAKPGTYKVQVMVPEAETRAGLTLKPQTFPLTVTNRPMMDVAFVQFLASVSGKVSCLDTCGDLLVTLQSLSRQGEKRSLQLSGKVNAMTFTFDNVLPGKYKISIMHEDWCWKNKSLEVEVLEDDMSAVEFRQTGYMLRCSLSHAITLEFYQDGNGRENVGIYNLSKGVNRFCLSKPGVYKVTPRSCHRFEQAFYTYDTSSPSILTLTAIRHHVLGTITTDKMMDVTVTIKSSIDSEPALVLGPLKSVQELRREQQLAEIEARRQEREKNGNEEGEERMTKPPVQEMVDELQGPFSYDFSYWARSGEKITVTPSSKELLFYPPSMEAVVSGESCPGKLIEIHGKAGLFLEGQIHPELEGVEIVISEKGASSPLITVFTDDKGAYSVGPLHSDLEYTVTSQKEGYVLTAVEGTIGDFKAYALAGVSFEIKAEDDQPLPGVLLSLSGGLFRSNLLTQDNGILTFSNLSPGQYYFKPMMKEFRFEPSSQMIEVQEGQNLKITITGYRTAYSCYGTVSSLNGEPEQGVAMEAVGQNDCSIYGEDTVTDEEGKFRLRGLLPGCVYHVQLKAEGNDHIERALPHHRVIEVGNNDIDDVNIIVFRQINQFDLSGNVITSSEYLPTLWVKLYKSENLDNPIQTVSLGQSLFFHFPPLLRDGENYVVLLDSTLPRSQYDYILPQVSFTAVGYHKHITLIFNPTRKLPEQDIAQGSYIALPLTLLVLLAGYNHDKLIPLLLQLTSRLQGVRALGQAASDNSGPEDAKRQAKKQKTRRT
notes: Nodal modulator 1 (NOMO1), human, type I transmembrane glycoprotein: luminal domain (1124 residues), TM domain, 40-residue cytosolic tail; cloned from a Dharmacon plasmid into pcDNA3.1+; 135 kDa with the tag; Membrane protein kept in dodecyl maltoside (0.05% DDM); also called full-length NOMO1-FLAG; full-length NOMO; source: Expi293F, transfected, purified in DDM (anti-FLAG M2 beads, FLAG peptide …)
  stoichiometry N: 2
